# According to IntAct's records for PubMed 21505799:
# B1: E3 ubiquitin-protein ligase NHLRC1 (Homo sapiens), Q6VVB1 (parent)
# chain: MAAEASESGPALHELMREAEISLLECKVCFEKFGHRQQRRPRNLSCGHVVCLACVAALAHPRTLALECPFCRRACRGCDTSDCLPVLHLIELLGSALRQSPAAHRAAPSAPGALTCHHTFGGWGTLVNPTGLALCPKTGRVVVVHDGRRRVKIFDSGGGCAHQFGEKGDAAQDIRYPVDVTITNDCHVVVTDAGDRSIKVFDFFGQIKLVIGGQFSLPWGVETTPQNGIVVTDAEAGSLHLLDVDFAEGVLRRTERLQAHLCNPRGVAVSWLTGAIAVLEHPLALGTGVCSTRVKVFSSSMQLVGQVDTFGLSLYFPSKITASAVTFDHQGNVIVADTSGPAILCLGKPEEFPVPKPMVTHGLSHPVALTFTKENSLLVLDTASHSIKVYKVDWG
# partner: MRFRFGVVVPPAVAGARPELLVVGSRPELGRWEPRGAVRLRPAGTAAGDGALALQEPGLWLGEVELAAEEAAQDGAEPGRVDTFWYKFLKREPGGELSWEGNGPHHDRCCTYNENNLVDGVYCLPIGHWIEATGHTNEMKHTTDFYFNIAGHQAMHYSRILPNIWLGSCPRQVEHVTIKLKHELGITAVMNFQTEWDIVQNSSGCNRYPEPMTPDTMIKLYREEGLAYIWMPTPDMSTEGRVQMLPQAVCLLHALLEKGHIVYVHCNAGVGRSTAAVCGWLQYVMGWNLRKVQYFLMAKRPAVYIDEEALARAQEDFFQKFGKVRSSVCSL
# Variants of: B1
# Details: with epm2a_human EPM2A
row,Variant,effect of a mutation on the interaction
1,C46Y,disrupting interaction
2,P69A,decreasing interaction

# Next, values leading:
row,effect of a mutation on the interaction,Variant
1,disrupting interaction,L261P
2,decreasing interaction,D146N
